# Target: T1, EcoExo I C98S/C306S/C330T (ONLD0366) C98S/C306S/C330T (Escherichia coli) (UniProt P04995)
# T1 sequence: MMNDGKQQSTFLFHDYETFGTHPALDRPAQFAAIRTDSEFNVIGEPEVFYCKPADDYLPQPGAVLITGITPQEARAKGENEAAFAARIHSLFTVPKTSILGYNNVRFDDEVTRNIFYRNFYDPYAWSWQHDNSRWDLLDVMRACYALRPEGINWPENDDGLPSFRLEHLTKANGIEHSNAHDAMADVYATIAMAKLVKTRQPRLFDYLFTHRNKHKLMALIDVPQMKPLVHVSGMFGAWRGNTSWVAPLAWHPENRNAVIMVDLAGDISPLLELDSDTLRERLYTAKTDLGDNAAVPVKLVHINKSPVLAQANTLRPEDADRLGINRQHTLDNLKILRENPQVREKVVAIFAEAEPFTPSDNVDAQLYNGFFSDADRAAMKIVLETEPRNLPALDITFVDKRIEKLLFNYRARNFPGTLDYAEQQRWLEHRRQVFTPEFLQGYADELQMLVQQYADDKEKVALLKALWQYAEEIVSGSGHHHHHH
# Assay: cleavage_in_vitro
# Conditions: fluorescein-dT at position 15, BHQ1 on dT at position 1; relative activity of mutants stated higher than wild type
substance,measurement,value
Exo I assay DNA template,activity (relative to wild type),> 1

# Reference: patent publication US20120100530
